Laboratory results: the supplement of paper PMC7125110
± gives the standard error. For some of these results: Fewer inactive variants are shown than the library holds.

B1: glmS ribozyme (parent)
chain: AUAAAAGCGCCAGAACUACAGAAAUGUAGUUGACGAGGAGGAGGUUUAUCGAAUUUUCGGCGGAUGCCUCCAAA

Columns and labels:
Settings in all cases: with glucosamine-6-phosphate
glucosamine-6-phosphate [1] = variants of: B1; assay: kcat; higher = faster cleavage; RNA array
Method in brief: (§1)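 Over ~14 h at 37 °C, tiles were imaged as glucosamine-6-phosphate (40 μM to 10 mM) in HEPES/KCl/Mg(OAc)2 buffer flowed across sequenced MiSeq chips. The chips carried barcoded ribozyme variants transcribed in situ by E. coli RNA polymerase and tracked with a hybridised Cy3 probe. After normalisation to baseline and to non-cleaving reference variants, one- or two-exponential decay fits of per-tile medians gave kobs. kcat and KM followed from weighted Michaelis–Menten fits across concentrations.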

glucosamine-6-phosphate [2] = variants of: B1; assay: self-cleavage kobs at 640 uM GlcN6P; higher = faster cleavage; RNA array
Method in brief: as §1

glucosamine-6-phosphate [3] = variants of: B1; assay: self-cleavage kobs at 2500 uM GlcN6P; higher = faster cleavage; RNA array
Method in brief: as §1

glucosamine-6-phosphate [4] = variants of: B1; assay: self-cleavage kobs at 10000 uM GlcN6P; higher = faster cleavage; RNA array
Method in brief: as §1

glucosamine-6-phosphate [5] = variants of: B1; assay: self-cleavage kobs at 40 uM GlcN6P; higher = faster cleavage; RNA array
Method in brief: as §1

glucosamine-6-phosphate [6] = variants of: B1; assay: KM; higher = weaker cofactor use; RNA array
Method in brief: as §1

glucosamine-6-phosphate [7] = variants of: B1; assay: self-cleavage kobs at 160 uM GlcN6P; higher = faster cleavage; RNA array
Method in brief: as §1

## A6U G41U
glucosamine-6-phosphate [1]
  kcat: 4.92e-05 ± 3.2e-06 s⁻¹

## G7U G60A
glucosamine-6-phosphate [1]
  kcat: < 1e-05 s⁻¹
glucosamine-6-phosphate [2]
  self-cleavage kobs at 640 uM GlcN6P: < 1e-05 s⁻¹
glucosamine-6-phosphate [3]
  self-cleavage kobs at 2500 uM GlcN6P: < 1e-05 s⁻¹
glucosamine-6-phosphate [4]
  self-cleavage kobs at 10000 uM GlcN6P: < 1e-05 s⁻¹

## G7C G37C
glucosamine-6-phosphate [1]
  kcat: < 1e-05 s⁻¹
glucosamine-6-phosphate [5]
  self-cleavage kobs at 40 uM GlcN6P: < 1e-05 s⁻¹
glucosamine-6-phosphate [3]
  self-cleavage kobs at 2500 uM GlcN6P: < 1e-05 s⁻¹
glucosamine-6-phosphate [4]
  self-cleavage kobs at 10000 uM GlcN6P: < 1e-05 s⁻¹

## A6U U56C
glucosamine-6-phosphate [1]
  kcat: 3.09e-05 ± 1.4e-06 s⁻¹
glucosamine-6-phosphate [6]
  KM: 4.67 ± 0.59 mM
glucosamine-6-phosphate [7]
  self-cleavage kobs at 160 uM GlcN6P: < 1e-05 s⁻¹
glucosamine-6-phosphate [4]
  self-cleavage kobs at 10000 uM GlcN6P: 2.11e-05 ± 7.5e-06 s⁻¹

## G7A G38A
glucosamine-6-phosphate [1]
  kcat: < 1e-05 s⁻¹

## C10G C58U
glucosamine-6-phosphate [1]
  kcat: < 1e-05 s⁻¹
glucosamine-6-phosphate [5]
  self-cleavage kobs at 40 uM GlcN6P: < 1e-05 s⁻¹
glucosamine-6-phosphate [2]
  self-cleavage kobs at 640 uM GlcN6P: < 1e-05 s⁻¹
glucosamine-6-phosphate [4]
  self-cleavage kobs at 10000 uM GlcN6P: < 1e-05 s⁻¹

## A6U G59A C68U
glucosamine-6-phosphate [1]
  kcat: 1.04e-05 ± 3.6e-06 s⁻¹

## G9U C34G C58G C68U
glucosamine-6-phosphate [1]
  kcat: 4.14e-05 ± 1.9e-05 s⁻¹
glucosamine-6-phosphate [7]
  self-cleavage kobs at 160 uM GlcN6P: 5.81e-05 ± 2.8e-05 s⁻¹

## C8G G60A
glucosamine-6-phosphate [1]
  kcat: < 1e-05 s⁻¹
glucosamine-6-phosphate [5]
  self-cleavage kobs at 40 uM GlcN6P: < 1e-05 s⁻¹
glucosamine-6-phosphate [4]
  self-cleavage kobs at 10000 uM GlcN6P: < 1e-05 s⁻¹

## A6G U54G
glucosamine-6-phosphate [1]
  kcat: 0.000277 ± 1.2e-05 s⁻¹
glucosamine-6-phosphate [6]
  KM: 1.23 ± 0.14 mM
glucosamine-6-phosphate [2]
  self-cleavage kobs at 640 uM GlcN6P: 9.48e-05 ± 1.7e-05 s⁻¹
glucosamine-6-phosphate [3]
  self-cleavage kobs at 2500 uM GlcN6P: 0.000179 ± 2.9e-05 s⁻¹
glucosamine-6-phosphate [4]
  self-cleavage kobs at 10000 uM GlcN6P: 0.000251 ± 3.1e-05 s⁻¹

## A6C A39G
glucosamine-6-phosphate [1]
  kcat: 6.38e-05 ± 7.8e-07 s⁻¹
glucosamine-6-phosphate [6]
  KM: 0.439 ± 0.033 mM
glucosamine-6-phosphate [3]
  self-cleavage kobs at 2500 uM GlcN6P: 5.42e-05 ± 1.9e-05 s⁻¹
glucosamine-6-phosphate [4]
  self-cleavage kobs at 10000 uM GlcN6P: 6.11e-05 ± 1.4e-05 s⁻¹

## A6G C50G C68U
glucosamine-6-phosphate [1]
  kcat: 0.000115 ± 2.9e-05 s⁻¹
glucosamine-6-phosphate [5]
  self-cleavage kobs at 40 uM GlcN6P: 5.04e-05 ± 2.1e-05 s⁻¹
glucosamine-6-phosphate [7]
  self-cleavage kobs at 160 uM GlcN6P: 9.16e-05 ± 2.3e-05 s⁻¹
glucosamine-6-phosphate [2]
  self-cleavage kobs at 640 uM GlcN6P: 0.000189 ± 4.8e-05 s⁻¹
glucosamine-6-phosphate [3]
  self-cleavage kobs at 2500 uM GlcN6P: 0.000173 ± 4.6e-05 s⁻¹
glucosamine-6-phosphate [4]
  self-cleavage kobs at 10000 uM GlcN6P: 7.92e-05 ± 2.5e-05 s⁻¹

## A6C G13A A36U U56G
glucosamine-6-phosphate [1]
  kcat: < 1e-05 s⁻¹
glucosamine-6-phosphate [5]
  self-cleavage kobs at 40 uM GlcN6P: < 1e-05 s⁻¹
glucosamine-6-phosphate [3]
  self-cleavage kobs at 2500 uM GlcN6P: < 1e-05 s⁻¹

## A6G G32U
glucosamine-6-phosphate [1]
  kcat: < 1e-05 s⁻¹
glucosamine-6-phosphate [5]
  self-cleavage kobs at 40 uM GlcN6P: < 1e-05 s⁻¹

## A6C U56A
glucosamine-6-phosphate [1]
  kcat: 4.08e-05 ± 9.7e-06 s⁻¹
glucosamine-6-phosphate [4]
  self-cleavage kobs at 10000 uM GlcN6P: 3.34e-05 ± 7.8e-06 s⁻¹

## A6C U56G
glucosamine-6-phosphate [1]
  kcat: 4.98e-05 ± 4.1e-06 s⁻¹
glucosamine-6-phosphate [6]
  KM: 4.2 ± 0.92 mM
glucosamine-6-phosphate [7]
  self-cleavage kobs at 160 uM GlcN6P: < 1e-05 s⁻¹
glucosamine-6-phosphate [4]
  self-cleavage kobs at 10000 uM GlcN6P: 3.5e-05 ± 1.3e-05 s⁻¹

## C10U A14G C68G
glucosamine-6-phosphate [1]
  kcat: 3.32e-05 ± 9.4e-06 s⁻¹

## A6C U69C
glucosamine-6-phosphate [1]
  kcat: 3.1e-05 ± 9.9e-06 s⁻¹
glucosamine-6-phosphate [5]
  self-cleavage kobs at 40 uM GlcN6P: < 1e-05 s⁻¹
glucosamine-6-phosphate [3]
  self-cleavage kobs at 2500 uM GlcN6P: 4.93e-05 ± 2e-05 s⁻¹

## A6U A64G
glucosamine-6-phosphate [1]
  kcat: 0.000266 ± 4.3e-05 s⁻¹
glucosamine-6-phosphate [6]
  KM: 1.91 ± 0.59 mM
glucosamine-6-phosphate [2]
  self-cleavage kobs at 640 uM GlcN6P: 7.26e-05 ± 7.4e-06 s⁻¹
glucosamine-6-phosphate [3]
  self-cleavage kobs at 2500 uM GlcN6P: 0.000128 ± 1.6e-05 s⁻¹
glucosamine-6-phosphate [4]
  self-cleavage kobs at 10000 uM GlcN6P: 0.00025 ± 2.8e-05 s⁻¹

## G9A
glucosamine-6-phosphate [1]
  kcat: 3.95e-05 ± 2.5e-06 s⁻¹
glucosamine-6-phosphate [6]
  KM: 5.14 ± 0.88 mM
glucosamine-6-phosphate [5]
  self-cleavage kobs at 40 uM GlcN6P: < 1e-05 s⁻¹
glucosamine-6-phosphate [7]
  self-cleavage kobs at 160 uM GlcN6P: < 1e-05 s⁻¹
glucosamine-6-phosphate [3]
  self-cleavage kobs at 2500 uM GlcN6P: 1.33e-05 ± 3e-06 s⁻¹
glucosamine-6-phosphate [4]
  self-cleavage kobs at 10000 uM GlcN6P: 2.61e-05 ± 1.5e-06 s⁻¹

## G9A G37C
glucosamine-6-phosphate [1]
  kcat: < 1e-05 s⁻¹
glucosamine-6-phosphate [5]
  self-cleavage kobs at 40 uM GlcN6P: < 1e-05 s⁻¹
